Source: patent US20140194320, “METHOD FOR PREPARING NUCLEIC ACID APTAMER” (TAGCYX BITOECNOLOGIES, published 2014)
Numbering of substitutions follows the chain as printed.

Legend:
NF-κB p50 (rhNF-κB) [1] = target: T1, NF-κB p50 (rhNF-κB) (Homo sapiens, UniProt P19838 P19838:1-433); assay: SPR; PBS, 0.05% Nonidet P-40, 2.5 mM DTT, 25 C; immobilized by hybridization to biotinylated probe; conditions: tags: Promega; chain copies: 2 (inferred); hairpin stem with non-Watson-Crick G-A and G-T pairs
Method: (§1) The binding ability of each NF-κB p50-binding DNA aptamer clone for NF-κB p50 was determined by the surface plasmon resonance (SPR) method using BIACORE 3000 (GE Healthcare Japan Corp.). The assay in the SPR method was conducted with a temperature set to 25° C. using buffer A as a running buffer. Specifically, DNA probes (21 mer) (SEQ ID NO: 30) each having a nucleotide sequence complementary to the 3′-terminal region of each clone and having a biotinylated base at the 5′ end were immobilized onto a streptavidin-coated sensor chip (SA chip). Then, 60 μL (corresponding to 12 minutes) of a solution of each single-stranded DNA clone (95 mer) diluted to 50 nM with PBS was injected thereto at a flow rate of 5 μL/min to immobilize the clone onto the SA chip through hybridization with the probe.

NF-κB p50 (rhNF-κB) [2] = target: T1, NF-κB p50 (rhNF-κB); assay: SPR; PBS, 0.05% Nonidet P-40, 2.5 mM DTT, 25 C; Example 3 text gives range 5.7 to 8.7; conditions: tags: Promega; chain copies: 2 (inferred); hairpin stem with two G-T and three G-A pairs
Method: as §1
(§2) Single-stranded DNA variants (68 mer, SEQ ID NOs: 31, 32, and 33; free from a sequence comprising the 5′-terminal primer sequence region) of each NF-κB p50-binding DNA aptamer clone were analyzed for their binding ability by the same SPR method as in Example 2. […] These single-stranded DNA variants used in binding analysis were prepared by chemical synthesis and gel purification. In the diagram, Cont-68 (SEQ ID NO: 34) corresponds to a single-stranded DNA in which the strands of a double-stranded DNA comprising a known NF-κB p50-binding consensus sequence were linked via adenine tetraloop (AAAA). […]

NF-κB p50 (rhNF-κB) [3] = target: T1, NF-κB p50 (rhNF-κB); assay: SPR; PBS, 0.05% Nonidet P-40, 2.5 mM DTT, 25 C; dissociation rate 10 times larger than 5R01-68; conditions: tags: Promega; chain copies: 2 (inferred); hairpin
NF-κB p50 (rhNF-κB) [4] = target: T1, NF-κB p50 (rhNF-κB); assay: SPR; PBS, 0.05% Nonidet P-40, 2.5 mM DTT, 25 C; conditions: tags: Promega, chain copies: 2 (inferred)
Method: as §1
Single-stranded DNA variants (68 mer, SEQ ID NOs: 31, 32, and 33; free from a sequence comprising the 5′-terminal primer sequence region) of each NF-κB p50-binding DNA aptamer clone were analyzed for their binding ability by the same SPR method as in Example 2. […] These single-stranded DNA variants used in binding analysis were prepared by chemical synthesis and gel purification. In the diagram, Cont-68 (SEQ ID NO: 34) corresponds to a single-stranded DNA in which the strands of a double-stranded DNA comprising a known NF-κB p50-binding consensus sequence were linked via adenine tetraloop (AAAA). For SPR analysis, each of these single-stranded DNAs was immobilized onto the SA chip through hybridization with probes by the injection of 20 μL (corresponding to 1 minute) of a solution of each DNA fragment (68 mer) diluted to 250 nM with PBS at a flow rate of 20 μL/min.

NF-κB p50 (rhNF-κB) [5] = target: T1, NF-κB p50 (rhNF-κB); assay: SPR; PBS, 0.05% Nonidet P-40, 2.5 mM DTT, 25 C; Example 2 text gives range 2.1 to 3.5 pM; conditions: tags: Promega; chain copies: 2 (inferred); hairpin stem with non-Watson-Crick pairs; 95 mer
Method: as §1

NF-κB p50 (rhNF-κB) [6] = target: T1, NF-κB p50 (rhNF-κB); assay: SPR; PBS, 0.05% Nonidet P-40, 2.5 mM DTT, 25 C; natural consensus hairpin control; conditions: tags: Promega, chain copies: 2 (inferred), known NF-κB consensus duplex strands linked via AAAA tetraloop
Method: as §1, §2

T1 sequence (P19838 1-433, one chain of several): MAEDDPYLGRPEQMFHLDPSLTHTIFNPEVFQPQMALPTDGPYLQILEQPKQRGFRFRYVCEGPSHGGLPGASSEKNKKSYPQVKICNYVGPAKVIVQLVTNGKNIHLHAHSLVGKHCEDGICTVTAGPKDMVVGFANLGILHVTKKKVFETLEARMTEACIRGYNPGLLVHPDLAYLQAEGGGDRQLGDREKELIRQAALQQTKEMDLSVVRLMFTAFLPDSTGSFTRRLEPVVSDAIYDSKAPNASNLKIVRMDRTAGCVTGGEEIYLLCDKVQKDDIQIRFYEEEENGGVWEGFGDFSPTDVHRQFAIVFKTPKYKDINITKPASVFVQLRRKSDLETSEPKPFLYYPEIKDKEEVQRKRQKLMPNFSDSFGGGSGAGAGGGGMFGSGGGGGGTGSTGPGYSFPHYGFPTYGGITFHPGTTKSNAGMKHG

B1: 5R01 (ssDNA)
DNA: GTAGTCACTAATCCGTTCGAGTCATGCCGGGGAATCACTGTAGGGACATTACGCAGGGGATTCACTAGGAGTGGACTGATACGATCGATTGACAG
NF-κB p50 (rhNF-κB) [1]
  Kd: 3.5 pM

B2: 5R01-68 (ssDNA)
DNA: CGGGGAATCACTGTAGGGACATTACGCAGGGGATTCACTAGGAGTGGACTGATACGATCGATTGACAG
NF-κB p50 (rhNF-κB) [2]
  Kd: 5.4 pM

B3: 5R01mut-68 (ssDNA)
DNA: B2 DNA with A10C, T12C, A28C, A37C, T39C
NF-κB p50 (rhNF-κB) [3]
  Kd: 140 pM

B4: 5R05-68 (ssDNA)
DNA: TGTAACGTAGGGGTTTCACCAACACTGCGGGAAACACTGAAGCGTGGACTGATACGATCGATTGACAG
NF-κB p50 (rhNF-κB) [4]; hairpin
  Kd: 7.2 pM

B5: 5R14 (ssDNA)
DNA: GTAGTCACTAATCCGTTCGAGTCATGCCACGGGGTTTCACTGTTTCGTAGATTGCATAAGGGGAAACACTGTGGACTGATACGATCGATTGACAG
NF-κB p50 (rhNF-κB) [5]
  Kd: 6.6 pM

B6: 5R14-68 (ssDNA)
DNA: CACGGGGTTTCACTGTTTCGTAGATTGCATAAGGGGAAACACTGTGGACTGATACGATCGATTGACAG
NF-κB p50 (rhNF-κB) [4]; hairpin
  Kd: 8.7 pM

B7: Cont-68 (ssDNA)
DNA: CCTTGAAGGGATTTCCCTCCAAAAGGAGGGAAATCCCTTCAAGGTGGACTGATACGATCGATTGACAG
NF-κB p50 (rhNF-κB) [6]
  Kd: 3500 pM

B8: 5R05 (ssDNA)
DNA: GTAGTCACTAATCCGTTCGAGTCATGCTGTAACGTAGGGGTTTCACCAACACTGCGGGAAACACTGAAGCGTGGACTGATACGATCGATTGACAG
NF-κB p50 (rhNF-κB) [4]; hairpin stem with non-Watson-Crick pairs, 95 mer
  Kd: 2.1 pM
